{"source": "patent US20050176123A1", "about": "“Protease inhibitor” (Morinaga Milk Industry Co., Ltd., priority 2002, published 2005)", "molecules": {"B1": {"name": "bovine lactoferrin: commercially available bovine lactoferrin (Morinaga Milk Industry), 78 kDa, SEQ ID No. 2 (protein, listed as Bos taurus)", "chain": "MKLFVPALLSLGALGLCLAAPRKNVRWCTISQPEWFKCRRWQWRMKKLGAPSITCVRRAFALECIRAIAEKKADAVTLDGGMVFEAGRDPYKLRPVAAEIYGTKESPQTHYYAVAVVKKGSNFQLDQLQGRKSCHTGLGRSAGWIIPMGILRPYLSWTESLEPLQGAVAKFFSASCVPCIDRQAYPNLCQLCKGEGENQCACSSREPYFGYSGAFKCLQDGAGDVAFVKETTVFENLPEKADRDQYELLCLNNSRAPVDAFKECHLAQVPSHAVVARSVDGKEDLIWKLLSKAQEKFGKNKSRSFQLFGSPPGQRDLLFKDSALGFLRIPSKVDSALYLGSRYLTTLKNLRETAEEVKARYTRVVWCAVGPEEQKKCQQWSQQSGQNVTCATASTTDDCIVLVLKGEADALNLDGGYIYTAGKCGLVPVLAENRKSSKHSSLDCVLRPTEGYLAVAVVKKANEGLTWNSLKDKKSCHTAVDRTAGWNIPMGLIVNQTGSCAFDEFFSQSCAPGADPKSRLCALCAGDDQGLDKCVPNSKEKYYGYTGAFRCLAEDVGDVAFVKNDTVWENTNGESTADWAKNLNREDFRLLCLDGTRKPVTEAQSCHLAVAPNHAVVSRSDRAAHVKQVLLHQQALFGKNGKNCPDKFCLFKSETKNLLFNDNTECLAKLGGRPTYEEYLGTEYVTAIANLKKCSTSPLLEACAFLTR", "modifications": "sig_peptide (1)...(19) Lactoferrin"}, "B2": {"name": "human lactoferrin: commercially available human lactoferrin (Morinaga Milk Industry), SEQ ID No. 1 (protein, listed as Homo Sapiens)", "chain": "MKLVFLVLLFLGALGLCLAGRRRRSVQWCAVSQPEATKCFQWQRNMRKVRGPPVSCIKRDSPIQCIQAIAENRADAVTLDGGFIYEAGLAPYKLRPVAAEVYGTERQPRTHYYAVAVVKKGGSFQLNELQGLKSCHTGLRRTAGWNVPIGTLRPFLNWTGPPEPIEAAVARFFSASCVPGADKGQFPNLCRLCAGTGENKCAFSSQEPYFSYSGAFKCLRDGAGDVAFIRESTVFEDLSDEAERDEYELLCPDNTRKPVDKFKDCHLARVPSHAVVARSVNGKEDAIWNLLRQAQEKFGKDKSPKFQLFGSPSGQKDLLFKDSAIGFSRVPPRIDSGLYLGSGYFTAIQNLRKSEEEVAARRARVVWCAVGEQELRKCNQWSGLSEGSVTCSSASTTEDCIALVLKGEADAMSLDGGYVYTAGKCGLVPVLAENYKSQQSSDPDPNCVDRPVEGYLAVAVVRRSDTSLTWNSVKGKKSCHTAVDRTAGWNIPMGLLFNQTGSCKFDEYFSQSCAPGSDPRSNLCALCIGDEQGENKCVPNSNERYYGYTGAFRCLAENAGDVAFVKDVTVLQNTDGNNNEAWAKDLKLADFALLCLDGKRKPVTEARSCHLAMAPNHAVVSRMDKVERLKQVLLHQQAKFGRNGSDCPDKFCLFQSETKNLLFNDNTECLARLHGKTTYEKYLGPQYVAGITNLKKCSTSPLLEACEFLRK", "modifications": "sig_peptide (1)...(19) Lactoferrin"}, "B3": {"name": "transferrin: commercially available bovine transferrin (Nihon Pharmaceutical Co., Ltd.), SEQ ID No. 4 (protein, listed as Bos taurus)", "chain": "MRPAVRALLACAVLGLCLADPERTVRWCTISTHEANKCASFRENVLRILESGPFVSCVKKTSHMDCIKAISNNEADAVTLDGGLVYEAGLKPNNLKPVVAEFHGTKDNPQTHYYAVAVVKKDTDFKLNELRGKKSCHTGLGRSAGWNIPMAKLYKELPDPQESIQRAAANFFSASCVPCADQSSFPKLCQLCAGKGTDKCACSNHEPYFGYSGAFKCLMEGAGDVAFVKHSTVFDNLPNPEDRKNYELLCGDNTRKSVDDYQECYLAMVPSHAVVARTVGGKEDVIWELLNHAQEHFGKDKPDNFQLFQSPHGKDLLFKDSADGFLKIPSKMDFELYLGYEYVTALQNLRESKPPDSSKDECMVKWCAIGHQERTKCDRWSGFSGGAIECETAENTEECIAKIMKGEADAMSLDGGYLYIAGKCGLVPVLAENYKTEGESCKNTPEKGYLAVAVVKTSDANINWNNLKDKKSCHTAVDRTAGWNIPMGLLYSKINNCKFDEFFSAGCAPGSPRNSSLCALCIGSEKGTGKECVPNSNERYYGYTGAFRCLVEKGDVAFVKDQTVIQNTDGNNNEAWAKNLKKENFEVLCKDGTRKPVTDAENCHLARGPNHAVVSRKDKATCVEKILNKQQDDFGKSVTDCTSNFCLFQSNSKDLLFRDDTKCLASIAKKTYDSYLGDDYVRAMTNLRQCSTSKLLEACTFHKP", "modifications": "sig_peptide (1)...(19) Transferrin"}}, "assay_type_in_all_cases": "biochemical", "key": {"[1]": {"molecular_target": "T1, papain (Carica papaya, UniProt P00784)", "T1 construct": "purchased Wako Pure Chemical Industries, Ltd", "T1 sequence (P00784 134-345)": "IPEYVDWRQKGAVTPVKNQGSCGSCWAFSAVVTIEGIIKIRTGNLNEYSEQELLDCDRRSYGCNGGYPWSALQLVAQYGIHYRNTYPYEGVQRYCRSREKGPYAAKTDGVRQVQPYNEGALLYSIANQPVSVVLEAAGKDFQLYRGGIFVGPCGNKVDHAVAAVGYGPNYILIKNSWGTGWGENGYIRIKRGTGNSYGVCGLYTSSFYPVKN", "assay": "reverse zymography with papain on gelatin-containing SDS-polyacrylamide gel", "settings": "12.5% SDS-polyacrylamide gel with 0.1% gelatin, papain digestion pH 5.5, 37° C., 10 hours", "source_text": "The inventor used a technique “reverse zymography” as a method of detecting protease inhibitory substance and detected a protease inhibitory substance located on the gel of SDS-polyacrylamide gel electrophoresis. The reverse zymography is based on a technique opposite of the normal zymography, and the basic principle of the reverse zymography is as follows. That is, a sample containing protease inhibitory substance is applied onto SDS-polyacrylamide gel containing gelatin, and electrophoresis is performed, followed by soaking the gel in a protease solution to degrade protein in the gel. Protease activity is inhibited on a portion where an inhibitory substance is present and gelatin of the portion avoids being degraded by protease and is stained with staining solution, which enables detection of inhibitory substance.\nUsing total milk protein and bovine lactoferrin (manufactured by Morinaga Milk Industry Co., Ltd.) as samples, electrophoresis (hereinafter, SDS-polyacrylamide gel electrophoresis is sometimes abbreviated to SDS-PAGE) was conducted with 12.5% SDS-polyacrylamide gel containing 0.1% of gelatin. After electrophoresis, the gel was washed by immersing it in a 2.5% Triton X-100 solution for 45 minutes, and further washed by repeating three times the operation of immersing the gel in distilled water for 45 minutes. […]"}, "[2]": {"molecular_target": "T1, papain", "assay": "cysteine protease inhibitory activity (Z-Phe-Arg-MCA fluorescence, method of Barrett et al.)", "settings": "pH 5.5, 37° C., 10 minutes", "procedure": "(§1) Inhibitory activities against cysteine proteases including papain, cathepsin B, cathepsin L and cathepsin S (these proteases are available from Wako Pure Chemical Industries, Ltd.) were determined using commercially available bovine lactoferrin (manufactured by Morinaga Milk Industry Co., Ltd.) as a test sample. The inhibitory activity was measured with reference to the method by Barrett et al. (“Methods in Enzymology,” Vol. 80, p 535-561, 1981) as described below. Namely, Z-Phe-Arg-MCA (final concentration of […]: manufactured by Peptide Institute, Inc.) was added as a substrate to 0.1 M acetic acid buffer solution (pH 5.5) in which sample was dissolved at each concentration. Then, cysteine protease (a protease selected from papain, cathepsin B, cathepsin L and cathepsin S in the present test: manufactured by Wako Pure Chemical Industries, Ltd.) solution (final concentration: 15 units/ml) was added, the whole solution was mixed and the reaction was carried out at 37° C. for 10 minutes. Subsequently, fluorescence intensity (excitation wavelength: 370 nm, emission wavelength: 460 nm) of AMC (7-Amino-4-Methyl-Coumarin) released from the digested substrate was measured with a fluorescence spectrometer (manufactured by Hitachi, Ltd.)."}, "[3]": {"molecular_target": "T2, cathepsin S (Homo sapiens, UniProt P25774)", "T2 construct": "purchased Wako Pure Chemical Industries, Ltd", "T2 sequence (P25774 115-331, species assumed)": "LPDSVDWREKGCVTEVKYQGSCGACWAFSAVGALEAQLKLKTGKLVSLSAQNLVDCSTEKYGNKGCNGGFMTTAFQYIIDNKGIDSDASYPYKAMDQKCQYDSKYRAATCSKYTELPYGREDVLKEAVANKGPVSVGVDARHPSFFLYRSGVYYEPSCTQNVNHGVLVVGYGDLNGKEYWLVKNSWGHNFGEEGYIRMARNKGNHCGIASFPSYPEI", "assay": "cysteine protease inhibitory activity (Z-Phe-Arg-MCA fluorescence, method of Barrett et al.)", "settings": "pH 5.5, 37° C., 10 minutes", "procedure": "as §1"}, "[4]": {"molecular_target": "T3, cathepsin L (Homo sapiens, UniProt P07711)", "T3 construct": "purchased Wako Pure Chemical Industries, Ltd", "T3 sequence (P07711 114-333, species assumed)": "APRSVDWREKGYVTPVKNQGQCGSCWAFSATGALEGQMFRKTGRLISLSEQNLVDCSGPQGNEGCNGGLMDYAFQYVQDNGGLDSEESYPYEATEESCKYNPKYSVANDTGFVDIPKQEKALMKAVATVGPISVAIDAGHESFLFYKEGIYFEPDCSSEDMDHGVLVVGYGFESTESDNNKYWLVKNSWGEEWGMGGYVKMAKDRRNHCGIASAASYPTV", "assay": "cysteine protease inhibitory activity (Z-Phe-Arg-MCA fluorescence, method of Barrett et al.)", "settings": "pH 5.5, 37° C., 10 minutes", "procedure": "as §1"}, "[5]": {"molecular_target": "T4, cathepsin B (Homo sapiens, UniProt P07858)", "T4 construct": "purchased Wako Pure Chemical Industries, Ltd", "assay": "cysteine protease inhibitory activity (Z-Phe-Arg-MCA fluorescence, method of Barrett et al.)", "settings": "pH 5.5, 37° C., 10 minutes", "procedure": "as §1"}}}
{"molecule": "B1", "values": [{"measurement": "band in reverse zymography using papain", "setting": "[1]", "value": "positive band"}]}
{"molecule": "B2", "values": [{"measurement": "inhibition rate at each concentration (%)", "setting": "[2]; inhibitor 10^−6M", "value": "completely inhibited"}, {"measurement": "inhibition rate at each concentration (%)", "setting": "[3]; inhibitor 10^−4M", "value": "almost completely inhibited"}, {"measurement": "inhibition rate at each concentration (%)", "setting": "[3]; inhibitor 10^−5M", "value": "more than 80%"}, {"measurement": "inhibition rate at each concentration (%)", "setting": "[4]; inhibitor 10^−6M", "value": "completely inhibited"}, {"measurement": "inhibition rate at each concentration (%)", "setting": "[5]; inhibitor 10^−4M", "value": "almost completely inhibited"}, {"measurement": "inhibition rate at each concentration (%)", "setting": "[5]; inhibitor 10^−5M", "value": "more than 80%"}]}
{"molecule": "B3", "values": [{"measurement": "inhibition of cysteine protease activity", "setting": "[2]; inhibitor 10^−3 M", "value": "completely inhibited"}, {"measurement": "inhibition rate at each concentration (%)", "setting": "[4]; inhibitor 10^−4M", "value": "more than 30%"}, {"measurement": "inhibition rate at each concentration (%)", "setting": "[5]; inhibitor 10^−4M", "value": "more than 30%"}]}
